# Assays:
# [1] = molecular target: rat endothelin receptor (rat); test: cell-based or functional assay
# [2] = molecular target: rat endothelin receptor (rat); test: displacement of [125I-Tyr13]endothelin-1 by unlabelled peptide on COS-7 cells transfected with prETR-7
substance,measurement,setting,value
endothelin-2 (from UniProt P20800 49-69) (peptide),"increase of calcium concentration in cytoplasm (fura-2), EC50",[1],0.02 nM
same,binding affinity,[2],2 nM

# Source: EP0480381A1
